B1: CLASP-4 C-terminal PL peptide AA3L-V, biotinylated (peptide)
peptide: Biotin-CAISGTSSDRGYGSPRYAEV
B2: CC CKR-3 C-terminal PL peptide AA43L, biotinylated (peptide)
peptide: Biotin-LERTSSVSPSTAEPELSIVF
B3: CD148 C-terminal PL peptide AA55L (ends KTIA), biotinylated (peptide)
peptide: Biotin-TIYENLAPVTTFGKTIA
B4: CC CKR-2 C-terminal PL peptide AA42L, biotinylated (peptide)
peptide: Biotin-GKGKSIGRAPEASLQDKEGA

Ends that are not written are not given here. * marks the point of attachment. Biotin = O=C1N[C@H]2[C@H](CS[C@H]2CCCCC(=O)*)N1

T8 sequence (P08515 1-218, tags or fused parts left off): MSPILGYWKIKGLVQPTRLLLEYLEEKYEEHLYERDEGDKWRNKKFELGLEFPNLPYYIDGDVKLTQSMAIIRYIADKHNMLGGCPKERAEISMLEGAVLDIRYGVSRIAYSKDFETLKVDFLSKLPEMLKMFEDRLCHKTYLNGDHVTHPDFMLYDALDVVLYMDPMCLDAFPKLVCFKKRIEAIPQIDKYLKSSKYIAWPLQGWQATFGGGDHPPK
Chain of GST-MINT3 PDZ domain fusion protein (human MINT3 AA11-52; PDZ domain 1 of 1) (P08515 1-218, tags or fused parts left off): as above
T1 sequence (P08515 1-218, tags or fused parts left off): as above
T7 sequence (P08515 1-218, tags or fused parts left off): as above
Chain of GST-prIL16 PDZ domain fusion protein (putative interleukin 16 precursor AA170-383; PDZ domains 1-2 of 2) (P08515 1-218, tags or fused parts left off): as above
Chain of GST-PSD95 PDZ domain fusion protein (human post-synaptic density protein 95 AA387-724; PDZ domains 1-3 of 3) (P08515 1-218, tags or fused parts left off): as above
Chain of GST-MPP1 PDZ domain fusion protein (55 Kd erythrocyte membrane protein AA101-186; PDZ domain 1 of 1) (P08515 1-218, tags or fused parts left off): as above
T11 sequence (P08515 1-218, tags or fused parts left off): as above

One test addresses T1, GST-SYN1a PDZ domain fusion protein (alpha1-syntrophin AA96-189; PDZ domain 1 of 1) (UniProt P08515 1-218 = GST).
T1 construct: also called SYN 1 alpha; SYNTR 1 alpha
Description: A/G assays.
Consider B1, for which the binding result was “no binding”.
B2: the binding result is given as “no binding”.
Take B3: the binding result is on record as “no binding”.
Turning to B4, the binding result is “no binding”.

For another test, the target named is T2, GST-TAX43 PDZ domain fusion protein (human tax interaction protein 43 AA15-85; PDZ domain 1 of 1) (human, UniProt P08515 1-218 = GST).
T2 construct: also called TX 43
T2 sequence (P08515 1-218, tags or fused parts left off): as above
Briefly: A/G assays.
As for B1, the binding result is given as “no binding”.
Take B2: the binding result is listed as “no binding”.
Take B3: the binding result was “no binding”.
With B4, the binding result was “no binding”.

Another test has as its target GST-PSD95 PDZ domain fusion protein (human post-synaptic density protein 95 AA387-724; PDZ domains 1-3 of 3) (human, UniProt P08515 1-218 = GST). Description: A/G assays.
Regarding B2, the binding result is given as “no binding”.
Turning to B3, the binding result is “no binding”.
Still for that read-out and setting: the entry for B4 is “no binding”.

The next test deals with T3, GST-KIAA0303 PDZ domain fusion protein (KIAA0303 AA652-742; PDZ domain 1 of 1) (UniProt P08515 1-218 = GST).
T3 construct: also called K303
T3 sequence (P08515 1-218, tags or fused parts left off): as above
Description: A/G assays.
Take B1: the binding result was “no binding”.
The same measure, in the same setting: the result for B2 reads “no binding”; that for B3, “no binding”.
On the same count and under the same terms, the entry for B4 is “no binding”.

In a further test the target is T4, GST-TAX40 PDZ domain fusion protein (human tax interaction protein 40 AA35-137; PDZ domain 1 of 1) (human, UniProt P08515 1-218 = GST).
T4 construct: also called TX 40
T4 sequence (P08515 1-218, tags or fused parts left off): as above
Description: A/G assays.
As to B1, the binding result is given as “no binding”.
Same read-out and setting: the result for B2 reads “no binding”; that for B3, “no binding”; that for B4, “no binding”.

The target of the next test is T5, GST-CBP PDZ domain fusion protein (Cytohesin binding protein HE AA85-175; PDZ domain 1 of 1) (UniProt P08515 1-218 = GST).
T5 construct: also called Prot
T5 sequence (P08515 1-218, tags or fused parts left off): as above
Briefly: A/G assays.
Turning to B1, the binding result was “no binding”.
For the molecule B2, the binding result is “no binding”.
For the molecule B3, the binding result is listed as “no binding”.
In the case of B4, the binding result is reported as “no binding”.

The target of the next test is GST-PTN-4 PDZ domain fusion protein (protein-tyrosine phosphatase meg1 AA774-862; PDZ domain 1 of 1) (UniProt P08515 1-218 = GST). Briefly: A/G assays.
Chain of GST-PTN-4 PDZ domain fusion protein (protein-tyrosine phosphatase meg1 AA774-862; PDZ domain 1 of 1) (P08515 1-218, tags or fused parts left off): as above
Consider B1, for which the binding result was “no binding”.
B2: the binding result is on record as “no binding”.
As for B3, the binding result is “no binding”.
B4: the binding result is recorded as “no binding”.

Another test concerns the target GST-prIL16 PDZ domain fusion protein (putative interleukin 16 precursor AA170-383; PDZ domains 1-2 of 2) (UniProt P08515 1-218 = GST). Description: A/G assays.
B1: the binding result was “no binding”.
The same measure, in the same setting: the entry for B2 is “no binding”.
In the case of B3, the binding result is listed as “no binding”.
For B4, the binding result is given as “no binding”.

The target of a further test is GST-DVL1 PDZ domain fusion protein (human dishevelled segment polarity protein homolog AA248-340); PDZ domain … (human, UniProt P08515 1-218 = GST). Description: A/G assays.
Chain of GST-DVL1 PDZ domain fusion protein (human dishevelled segment polarity protein homolog AA248-340); PDZ domain … (P08515 1-218, tags or fused parts left off): as above
For the molecule B1, the binding result is on record as “no binding”.
The same measure, in the same setting: the result for B2 reads “no binding”; that for B3, “no binding”.
With B4, the binding result was “no binding”.

The next test concerns the target T6, GST-NeDLG PDZ domain fusion protein (presynaptic protein sao102, neuroendocrine-dlg; PDZ domains 1-2 of 3) (UniProt P08515 1-218 = GST).
T6 construct: also called NeDLG1
Briefly: A/G assays.
Regarding B2, the binding result is on record as “no binding”.
As for B3, the binding result is “no binding”.
Regarding B4, the binding result was “no binding”.

The next test addresses GST-MPP1 PDZ domain fusion protein (55 Kd erythrocyte membrane protein AA101-186; PDZ domain 1 of 1) (UniProt P08515 1-218 = GST). Description: A/G assays.
B1: the binding result is reported as “no binding”.
Still for that read-out and setting: the result for B2 reads “no binding”.
Consider B3, for which the binding result is “no binding”.
Consider B4, for which the binding result is “no binding”.

Another test concerns the target T7, GST-MPP2 PDZ domain fusion protein (maguk p55 subfamily member 2 (DLG2) AA185-273; PDZ domain 1 of 1) (UniProt P08515 1-218 = GST).
T7 construct: also called MMP2
Description: A/G assays.
Turning to B1, the binding result is “no binding”.
As to B2, the binding result was “no binding”.
Take B3: the binding result was “no binding”.
Regarding B4, the binding result is on record as “no binding”.

A further test concerns the target T8, GST-KIAA0316 PDZ domain fusion protein (KIAA0316 AA197-284; PDZ domain 1 of 1) (UniProt P08515 1-218 = GST).
T8 construct: also called K316
Description: A/G assays.
Take B1: the binding result is recorded as “no binding”.
On to B2, for which the binding result is “no binding”.
B3: the binding result is given as “no binding”.
On to B4, for which the binding result is reported as “no binding”.

For another test, the target named is T9, GST-41.8 kD PDZ domain fusion protein (hypothetical 41.8 kD protein AA4-85; PDZ domain 1 of 1) (UniProt P08515 1-218 = GST).
T9 construct: also called hypoth
T9 sequence (P08515 1-218, tags or fused parts left off): as above
Description: A/G assays.
For the molecule B2, the binding result was “no binding”.
With B3, the binding result was “no binding”.
Regarding B4, the binding result is given as “no binding”.

A further test has as its target T10, GST-KIAA0559 PDZ domain fusion protein (KIAA0559 AA766-870; PDZ1 of 1) (UniProt P08515 1-218 = GST).
T10 construct: also called K559
Briefly: A/G assays.
On to B1, for which the binding result is reported as “no binding”.
As for B2, the binding result is “no binding”.
As to B3, the binding result is listed as “no binding”.
Still for that read-out and setting: the entry for B4 is “no binding”.

Another test addresses T11, GST-TAX2 PDZ domain fusion protein (human tax interaction protein 2 AA54-140; PDZ domain 1 of 1) (human, UniProt P08515 1-218 = GST).
T11 construct: also called TX 2
Briefly: A/G assays.
As to B1, the binding result is “no binding”.
As to B2, the binding result is recorded as “no binding”.
As to B3, the binding result is “no binding”.
As for B4, the binding result is “no binding”.

Another test deals with T12, GST-TAX33 PDZ domain fusion protein (tax interaction protein 33 AA73-162; PDZ domain 1 of 1) (UniProt P08515 1-218 = GST).
T12 construct: also called TX33
T12 sequence (P08515 1-218, tags or fused parts left off): as above
Briefly: A/G assays.
Turning to B1, the binding result is “no binding”.
On to B2, for which the binding result was “no binding”.
Consider B3, for which the binding result is recorded as “no binding”.
On to B4, for which the binding result is recorded as “no binding”.

The target in another test is GST-TIAM1 PDZ domain fusion protein (T-lymphoma invasion and metastasis inducing protein 1 AA1001-1088); PDZ 1 … (UniProt P08515 1-218 = GST). Briefly: A/G assays.
Chain of GST-TIAM1 PDZ domain fusion protein (T-lymphoma invasion and metastasis inducing protein 1 AA1001-1088); PDZ 1 … (P08515 1-218, tags or fused parts left off): as above
For B1, the binding result is “no binding”.
As to B2, the binding result is “no binding”.
As for B3, the binding result is “no binding”.
For the molecule B4, the binding result was “no binding”.

The target in a further test is T13, GST-CASK PDZ domain fusion protein (CASK AA495-584; PDZ domain 1 of 1) (mouse, UniProt P08515 1-218 = GST).
T13 construct: also called mCASK
T13 sequence (P08515 1-218, tags or fused parts left off): as above
Description: A/G assays.
Take B1: the binding result is “no binding”.
Turning to B2, the binding result is recorded as “no binding”.
Same read-out and setting: the result for B3 reads “no binding”.
The same measure, in the same setting: the entry for B4 is “no binding”.

For another test, the target named is T14, GST-RGS12 PDZ domain fusion protein (human regulator of G-protein signalling 12 AA35-103; PDZ domain 1 of 1) (human, UniProt P08515 1-218 = GST).
T14 construct: also called RSG12
T14 sequence (P08515 1-218, tags or fused parts left off): as above
Briefly: A/G assays.
In the case of B1, the binding result was “no binding”.
On the same count and under the same terms, the result for B2 reads “no binding”; that for B3, “no binding”; that for B4, “no binding”.

The target in a further test is GST-LIMK2 PDZ domain fusion protein (human LIM domain kinase 2 AA185-275; PDZ domain 1 of 1) (human, UniProt P08515 1-218 = GST). Briefly: A/G assays.
Chain of GST-LIMK2 PDZ domain fusion protein (human LIM domain kinase 2 AA185-275; PDZ domain 1 of 1) (P08515 1-218, tags or fused parts left off): as above
Consider B1, for which the binding result was “no binding”.
For B2, the binding result is given as “no binding”.
Regarding B3, the binding result is reported as “no binding”.
On to B4, for which the binding result is given as “no binding”.

For the next test, the target named is GST-LIM PDZ domain fusion protein (Human LIM protein AA29-112; PDZ domain 1 of 1) (human, UniProt P08515 1-218 = GST). Briefly: A/G assays.
Chain of GST-LIM PDZ domain fusion protein (Human LIM protein AA29-112; PDZ domain 1 of 1) (P08515 1-218, tags or fused parts left off): as above
For B1, the binding result is recorded as “no binding”.
For B2, the binding result is recorded as “no binding”.
As for B3, the binding result is on record as “no binding”.
Still for that read-out and setting: the entry for B4 is “no binding”.

Another test concerns the target GST-MINT3 PDZ domain fusion protein (human MINT3 AA11-52; PDZ domain 1 of 1) (human, UniProt P08515 1-218 = GST). Description: A/G assays.
Consider B1, for which the binding result is listed as “no binding”.
For the molecule B2, the binding result is “no binding”.
B3: the binding result was “no binding”.
Take B4: the binding result is “no binding”.

A further test has as its target GST-AF6 PDZ domain fusion protein (af-6 protein AA985-1077; PDZ domain 1 of 1) (UniProt P08515 1-218 = GST). Description: A/G assays.
For B2, the binding result is given as “no binding”.
On the same count and under the same terms, the entry for B3 is “no binding”; for B4 it is “no binding”.

A further test addresses GST-NOS1 PDZ domain fusion protein (human neuronal nitric oxide synthase; PDZ domain 1 of 1) (human, UniProt P08515 1-218 = GST). Briefly: A/G assays.
Take B1: the binding result is on record as “no binding”.
In the case of B2, the binding result is given as “no binding”.
For B3, the binding result was “no binding”.
Regarding B4, the binding result is given as “no binding”.

These data come from US20090149339A1 (published 2009).
